Results: US11207289B2, “Use of benzofuran lignans to induce IL-25 expression and suppress mammary tumor metastasis” (ACADEMIA SINICA, priority 2016, dated 2021)

Experiments:
IL-25 = IL-25 expression in lung fibroblasts, 4T1 tumor resection model (IF staining, flow cytometry); format: in vivo, mice
Method: BALB/c mice were subcutaneously injected with 4T1-Luc2 cells (5×10^5/100 μl PBS/mouse) into the fourth mammary fat pad under isoflurane anesthesia. Tumor growth was monitored by measuring the tumor volume according to the formula: volume=length×(width)^2/2. After tumors were established (180-200 mm^3) on day 14, test mice were divided into different groups (8 mice/group) and subjected to different treatments. At 15 days post tumor cell implantation, primary 4T1 tumors in situ were surgically removed by a tumor resection process. For drug treatment, mice were administered with different agents, including vehicle-control (PBS), mouse IL-25 protein (10 μg/kg, ProSpec, Vineland, N.J.), Q2-3 (2, 20 or 100 μg/kg) or docetaxel (2 mg/kg; Sigma-Aldrich), by intravenous injection for 3 weeks (3 injections/week) post tumor resection. For in vivo neutralization of mouse IL-25 activity, mice were treated intraperitoneally with either 100 μg anti-mouse IL-25 (IL-17E) antibody (clone 35B; Biolegend) or isotype control rat IgG (100 μg; rat, IgG1κ; Biolegend) at days 0, 3, 6, 9, 12, 15, 18 post tumor resection. To detect metastasis of human MDA-MD-231-Luc2 tumor cells, nude mice were injected subcutaneously with 5×10^5 MDA-MD-231-Luc2 cells into the mammary fat pad under isoflurane anesthesia. After tumors were established (250-350 mm^3) on day 24, test mice were divided into different groups (8 mice/group) and subjected to different treatments. At 25 days post tumor cell implantation, primary MDA-MD-231-Luc2 tumors in situ were surgically removed by a tumor resection process. For drug treatment, mice were administered with PBS (vehicle-control), Q2-3 (100 μg/kg), docetaxel (5 mg/kg) or Q2-3 (100 μg/kg)+docetaxel (5 mg/kg), by intravenous injection for 3 weeks (3 injections/week) post tumor resection. To monitor the progression of mouse (4T1) or human (MDA-MD-231) metastatic tumors, test mice treated with different drugs/agents were compared for their tumor metastatic activity and survival rate aftern another 8 weeks. Bioluminescence signals from the 4T1-luc2 tumor cells in test mice were analyzed using a non-invasive IVIS imaging system (Calipers, Hopkinton, Mass.) after intraperitoneal injection of 150 mg/kg D-luciferin (NanoLight technology, Pinetop, Ariz.).
Lung tissue specimens obtained from each tumor-resected mouse were fixed with 4% formalin and embedded in paraffin. For histological comparison, 6 μm-thick tissue sections were made and stained with hematoxylin and eosin (H&E). For immunofluorescence staining, fixed tissue sections were initially immersed in boiling sodium citrate buffer (0.01 M sodium citrate buffer, pH 6.0) for 30 min Lung tissue sections were blocked with 5% nonfat milk, and incubated with anti-FSP-1 antibody (1:200 dilution; Millipore), FITC-conjugated anti-CD206 antibody (1:200 dilution; Biolegend) or PE-conjugated anti-IL-25 antibody (1:100; R&D) in 1% nonfat milk for 1 hour at room temperature. Sections were then washed with PBS containing 0.1% Tween 20. To detect primary antibodies, some sections were incubated with FITC-conjugated anti-mouse-IgG (1:200; Jackson Immunoresearch, West Grove, Pa.) for FSP-1. 4′,6-Diamidino-2-phenylindole dihydrochloride (1 μg/ml; Sigma-Aldrich) was used to stain the nuclei. Fluorescence microscopy evaluation of immunostained tissue sections was performed using a Zeiss Axiovert 200 M microscope (Carl Zeiss, Heidelberg, Germany) Images were captured with a digital camera (Orca ER, Hamamatsu) and processed using Axiovision 4.6.3 (Carl Zeiss).
For detection of myeloid derived suppressor cells (MDSCs), cells from mouse lung tissue in each group were collected and stained for 30 min at 4° C. with antibodies against specific cell markers, including FITC-conjugated anti-mouse CD11b (for cell surface), APC-Cy7 conjugated anti-mouse Ly-6C and PE conjugated anti-mouse Ly-6G, (both for intracellular staining). All three antibodies were obtained from Biolegend, (San Diego, Calif.). […]

4T1 cells = assay: MTT growth activity of 4T1 cells in fibroblast conditioned media; format: cell-based, mouse; details: MTT at 5 days; media applied every 24 hours; IL-25 protein 100 ng/ml
Method: (§1) M10, WI38, SKBR3, and MDA-MB-231 cells (1×10^5 cells/ml) dispensed in 96-well plates were incubated with vehicle or test compounds (Q2-3) for 24 h or 72 h in corresponding basal medium in a 5% CO2 incubator. To evaluate the effect of secreted IL-25 from Q2-3-treated fibroblasts on growth activity of mammary tumor cells, 4T1 and MDA-MB-231 cells (1×10^4 cells/ml) dispensed in 96-well plates were incubated with control medium or different fibroblast conditioned media (200 μl/ml) which was changed daily for 5 days. All treatments were performed in triplicate cell cultures. The growth activity of cells was assayed using a 3-(4, 5-dimethythiazol-2-yl)-2, 5-diphenyl tetrazolium bromide (MTT; Sigma-Aldrich) colorimetric method. The absorbance at 570 nm (A570) was measured using a multiwall scanning spectrophotometer.
(§2) To pull down and deplete IL-25 protein molecules in 3T3 or MDA-MB-231 cell conditioned media, the Dynabeads antibody coupling kit (Life Technology; 14311D) was used according to the manufacturer's recommendations, yielding 10 mg/ml anti-IL25 antibody (ProteinTech, Chicago, Ill.)-coupled beads. The rabbit IgG (ProteinTech, Chicago, Ill.) was used as an isotype control antibody. […] The antibody-pulled down proteins from 3T3-CM, NHDF-CM or WI38-CM, were detected for the content of secreted IL-25 protein in each conditioned medium using western blot analysis. […]

MDA-MB-231 cells = assay: MTT growth activity of MDA-MB-231 cells in fibroblast conditioned media; format: cell-based, human; details: MTT at 5 days; media applied every 24 hours; IL-25 protein 100 ng/ml
Method: as §1, §2

caspases 8 and 3 = assay: Western blot of cleavage of caspases 8 and 3 in MDA-MB-231 cells; format: cell-based, human
Method: MDA-MB231 and MCF-7 cells were seeded in 6-well plate at 10^5 cells/well for 24 h before transfection. siRNAs used for knockdown of human IL-25 receptor (IL25-RB) were purchased from Biotools (Taiwan, ROC) as follows: IL-17RB-homo-448 (IL-25R-1 siRNA); IL-17RB-homo-519 ([…]); IL-17RB-homo-956 ([…]); negative control (Neg). At the beginning of transfection, each test IL25R siRNA oligomers (100 pmol) was diluted in 250 μl Opti-MEM I Reduced Serum Medium. Aliquots of 5 μl Lipofectamine 2000 transfection reagent (Invitrogen) were diluted with 250 μl Opti-MEM I Reduced Serum Medium. Diluted oligomers were mixed gently with the diluted Lipofectamine 2000 and incubated for 20 min at room temperature. The oligomer-Lipofectamine 2000 complexes were subsequently added to each well containing cells and medium. Cells were incubated at 37° C. for 72 h until test cells were ready to be treated with IL25 cytokine or a different CM.
Cell lysates of 3T3, WI38, NHDF, MDA-MB-231, MCF-10A and MCF-7 or the IL-25-pulled down protein lysates from 3T3, WI38 or NHDF conditioned media were resolved by SDS PAGE using 8, 10 or 15% stepwise gels. […] Loading of equal amounts of protein was assessed using the mouse β-actin protein as a reference. […] Quantification of protein in luminescent bands was performed using ImageJ software. […]

## CC(=O)O[C@@]12CO[C@@H]1C[C@H](O)[C@@]1(C)C(=O)[C@H](O)C3=C(C)[C@@H](OC(=O)[C@H](O)[C@@H](NC(=O)OC(C)(C)C)c4ccccc4)C[C@@](O)([C@@H](OC(=O)c4ccccc4)[C@H]21)C3(C)C [DT, docetaxel, reference compound]
IL-25; 3 weeks post tumor resection, PBS control 5.2%
  total FSP-1+ER-TR7+ fibroblast population in lung: did not increase
IL-25; 3 weeks post tumor resection, PBS control 16.7%
  cell population of IL-25+ fibroblasts (FSP-1+ER-TR7+IL-25+ cells) in lung: did not increase
IL-25; Q2-3 100 μg/kg, 21 days post tumor resection
  IL-25 expression in lung fibroblasts (IF staining): little or no IL-25 expression

B1: IL-25: human and mouse IL-25 recombinant protein (protein, UniProt Q9H293 33-177, looked up)
Interleukin-25: YSHWPSCCPSKGQDTSEELLRWSTVPVPPLEPARPNRHPESCRASEDGPLNSRAISPWRYELDRDLNRLPQDLYHARCLCPHCVSLQTGSHMDPRGNSELLYHNQTVFYRRPCHGEKGTHKGYCLERRLYRVSLACVCVRPRVMG
modifications: also mouse IL-25
notes: human and mouse IL-25 recombinant protein
4T1 cells
  growth activity of 4T1 cells: decreased the growth activity
MDA-MB-231 cells
  growth activity of MDA-MB-231 cells: decreased the growth activity
Caspases 8 and 3; MDA-MB-231, IL-25 100 ng/ml, 24 h
  cleavage of caspases 8 and 3: resulted in the cleavage of caspases 8 and 3
Caspases 8 and 3; MDA-MB-231 treated with IL-25R siRNA
  cleavage of caspases 8 and 3 in cells treated with IL-25R siRNA: not able to induce
